The text below walks through data of patent US20230399641A1 (SHANGHAITECH UNIVERSITY, published 2023).

The target in this experiment is extracellular protease domain of wildtype human ACE2 (residues 19-615) (human, UniProt Q9BYF1 19-615).
Chain of extracellular protease domain of wildtype human ACE2 (residues 19-615) (Q9BYF1 19-615): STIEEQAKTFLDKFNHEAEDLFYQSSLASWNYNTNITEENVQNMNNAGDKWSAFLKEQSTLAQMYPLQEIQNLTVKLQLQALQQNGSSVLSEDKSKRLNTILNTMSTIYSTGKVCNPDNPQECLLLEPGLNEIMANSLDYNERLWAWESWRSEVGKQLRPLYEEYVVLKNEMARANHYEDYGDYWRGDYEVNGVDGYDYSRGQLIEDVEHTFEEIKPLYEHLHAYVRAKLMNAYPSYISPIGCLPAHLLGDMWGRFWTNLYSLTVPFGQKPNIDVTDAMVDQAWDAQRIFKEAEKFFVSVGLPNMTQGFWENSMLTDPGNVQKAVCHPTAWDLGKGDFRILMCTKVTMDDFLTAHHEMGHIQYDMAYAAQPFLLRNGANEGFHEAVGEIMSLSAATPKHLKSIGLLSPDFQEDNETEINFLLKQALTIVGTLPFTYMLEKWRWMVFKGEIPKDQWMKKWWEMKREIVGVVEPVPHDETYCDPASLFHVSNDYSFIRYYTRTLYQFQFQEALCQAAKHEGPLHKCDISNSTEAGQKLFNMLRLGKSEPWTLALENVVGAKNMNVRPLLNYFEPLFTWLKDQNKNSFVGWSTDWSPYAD

B1: receptor binding domain (RBD) of HCoV-NL63 spike (residues 481-616) (ligand)
chain: QHTDINFTATASFGGSCYVCKPHQVNISLNGNTSVCVRTSHFSIRYIYNRVKSGSPGDSSWHIYLKSGTCPFSFSKLNNFQKFKTICFSTVEVPGSCNFPLEATWHYTSYTIVGALYVTWSEGNSITGVPYPVSGI
Broadly, the Kd is the concentration at which binding is half-saturated. A lower Kd goes with tighter binding. Molecule B1 came in with a Kd of 0.43 µM.
